Measurements: article doi:10.1101/2025.03.26.645513v1

Substrate: CC(=O)OC[C@H](N)C(=O)O
Experiment: purified protein
Details: 15 mM Na2S, MOPS, 37 °C, no glycerol

B1: SaCysK (Staphylococcus aureus subsp. aureus N315) (protein)
chain: MAQKPVDNITQIIGGTPVVKLRNVVDDNAADVYVKLEYQNPGGSVKDRIALAMIEKAEREGKIKPGDTIVEPTSGNTGIGLAFVCAAKGYKAVFTMPETMSQERRNLLKAYGAELVLTPGSEAMKGAIKKAKELKEEHGYFEPQQFENPANPEVHELTTGPELLQQFEGKTIDAFLAGVGTGGTLSGVGKVLKKEYPNIEIVAIEPEASPVLSGGEPGPHKLQGLGAGFIPGTLNTEIYDSIIKVGNDTAMEMSRRVAKEEGILAGISSGAAIYAAIQKAKELGKGKTVVTVLPSNGERYLSTPLYSFDD
**Q.** B1 was tested. Which Km did it give?
**A.** 1378 ± 592 µM
